Measured values as given in US20110059095A1 (Regeneron, published 2011).
Where no end group is shown, it is not given here. The star is where a group is joined. Biotin = O=C1N[C@H]2[C@H](CS[C@H]2CCCCC(=O)*)N1

What was measured:
[1] = target: T1, Peptide K (human PAR-1), unbiotinylated (Human); assay: SPR, antibody captured
T1 peptide: ATNATLDPRSFLLRNPND

[2] = target: T2, Peptide M (human PAR-4), unbiotinylated (Human); assay: SPR, antibody captured
T2 peptide: ESGSTGGGDDSTPSILPAP

[3] = target: T3, Peptide L (human PAR-3), unbiotinylated (Human); assay: SPR, antibody captured
T3 peptide: DTNNLAKPTLPIKTFRGA

[4] = target: T4, Peptide A (human PAR-2), C-terminal biotinylated (Human, C-terminal biotin via G4S linker); assay: SPR, peptide immobilized
T4 construct: also called Peptide A C-Term
Experimental: (§1) In another series of experiments, equilibrium dissociation constants (KD values) for purified antibody binding to selected biotinylated and unbiotinylated forms of PAR-2 peptides were determined by surface kinetics using a real-time surface plasmon resonance biosensor assay. Neutravidin (Pierce, Rockford, Ill.) was covalently coupled to the surface of a Biacore™ C1 chip or CM5 chip using amine coupling chemistry. Biotinylated (N-Term or C-Term) PAR-2 peptides (Peptides A and B) were immobilized on the surface via the high affinity binding interaction between biotin and the amine coupled Neutravidin.
(§2) In a first experiment using this format, varying concentrations (ranging from 5 to 100 μg/ml) of purified antibody were injected at a rate of 50 μl/min over a surface coated with immobilized peptide at low-density (<1RU) for 300 seconds. Antibody-peptide binding and dissociation was monitored in real time 25° C.

[5] = target: T5, Peptide B (human PAR-2), C-terminal biotinylated (Human, not fully specified); assay: SPR, peptide immobilized
T5 construct: also called Peptide B C-Term
T5 peptide: SLIGKVDGTSHVTGGGGGS-biotin
Experimental: as §1, §2

full length mouse PAR-2 = target: T6, full length mouse PAR-2 (mouse, UniProt P55086 26-399); assay: MSD cell binding
T6 construct: also called 293/D9/mPAR-2rec cells
T6 chain: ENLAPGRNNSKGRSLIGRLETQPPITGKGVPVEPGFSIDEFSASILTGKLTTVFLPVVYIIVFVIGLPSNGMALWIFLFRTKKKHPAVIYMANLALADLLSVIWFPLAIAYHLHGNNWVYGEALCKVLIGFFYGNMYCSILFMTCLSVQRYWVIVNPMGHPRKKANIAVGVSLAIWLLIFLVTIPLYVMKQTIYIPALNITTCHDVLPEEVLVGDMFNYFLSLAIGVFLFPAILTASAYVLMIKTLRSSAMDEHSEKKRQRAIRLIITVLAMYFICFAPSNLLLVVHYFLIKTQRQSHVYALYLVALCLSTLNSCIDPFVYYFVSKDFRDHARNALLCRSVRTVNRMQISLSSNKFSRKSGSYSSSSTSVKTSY
Experimental: (§3) HEK293 cells were transfected with an NF-κB-luciferase-IRES-eGFP reporter plasmid. […] A clonal cell line, named D9, having low background levels of luciferase activity and high levels of eGFP when induced with IL-1β was made by a series of successive sorts of cell populations using flow cytometry. The 293/D9 cell line was then separately transfected with human PAR-2 or mouse PAR-2 to create the stable cell lines 293/D9/h PAR-2rec and 293/D9/m PAR-2rec, respectively.
(§4) Cells were plated on MSD high-bind 96 well plates at a density of 4×10⁴ cells/well in PBS and incubated for one hour at room temperature. Cells were then blocked in PBS with 2% BSA and incubated at room temperature for one hour. Anti-PAR-2 antibodies (ranging from 100 nM to 0.098 nM) were serially diluted two-fold in PBS with 0.5% BSA and incubated with the cells for one hour at room temperature followed by washing in PBS with 0.5% BSA. Sulfo-tagged anti-human IgG antibody (MSD) at a concentration of 0.1 μg/ml was then added to the cell/antibody mixture and incubated at room temperature for an additional hour. After another wash, a 1× non-surfactant containing read buffer was added and electro-chemiluminescent signal was read on the MSD Sector Imager. Signal of antibody binding to 293/D9 cells was subtracted from signal to 293/D9/hPAR-2rec or 293/D9/mPAR-2rec cells. Subtracted data were analyzed using a sigmoidal dose-response model in GraphPad Prism and EC₅₀ and Bₘₐₓ values were reported (Table 18). EC₅₀ values are defined as the antibody concentration required to achieve 50% maximal binding (Bₘₐₓ) to cells.

full length human PAR-2 = target: T7, full length human PAR-2 (human, UniProt P55085 26-397); assay: MSD cell binding
T7 construct: overexpressed on HEK293-derived 293/D9 cells; also called 293/D9/hPAR-2rec cells
Experimental: as §3, §4

[6] = target: T8, Peptide G (rat PAR-2), N-terminal biotinylated (Rat (Rattus norvegicus), N-terminal biotin via G4S linker); assay: SPR, peptide immobilized
T8 construct: also called Peptide G N-Term
T8 peptide: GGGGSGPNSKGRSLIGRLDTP

[7] = target: T9, Peptide E (mouse PAR-2), N-terminal biotinylated (Mouse (Mus musculus), N-terminal biotin via G4S linker); assay: SPR, peptide immobilized
T9 construct: also called Peptide E N-Term
T9 peptide: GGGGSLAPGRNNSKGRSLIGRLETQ

[8] = target: T10, Peptide A (human PAR-2), N-terminal biotinylated (Human, N-terminal biotin via G4S linker); assay: SPR, peptide immobilized
T10 construct: also called Peptide A N-Term
T10 peptide: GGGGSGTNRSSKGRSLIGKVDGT

[9] = target: T11, Peptide B (human PAR-2), N-terminal biotinylated (Human); assay: SPR, peptide immobilized
T11 construct: also called Peptide B N-Term
T11 peptide: Biotin-GGGGSSLIGKVDGTSHVTG

[10] = target: T12, Peptide F (monkey PAR-2), N-terminal biotinylated (Monkey (Macaca mulatta), N-terminal biotin via G4S linker); assay: SPR, peptide immobilized; SPR, biotinylated peptide on the chip, bivalent antibody in solution
T12 construct: also called Peptide F N-Term

[11] = target: T13, Peptide C (human PAR-2), N-terminal biotinylated (Human); assay: SPR, peptide immobilized
T13 construct: also called Peptide C N-Term
T13 peptide: Biotin-GGGGSSLIGKV

[12] = target: T14, Peptide B (human PAR-2), unbiotinylated (Human); assay: SPR, antibody captured
T14 construct: also called Peptide B No Biotin
T14 peptide: SLIGKVDGTSHVTG
Experimental: Equilibrium dissociation constants (KD values) for antigen binding to selected purified PAR-2 antibodies were determined by surface kinetics using a real-time surface plasmon resonance biosensor assay. Antibody was captured on either a rabbit anti-mouse IgG polyclonal antibody (GE Healthcare, Piscataway, N.J.) surface or a goat anti-human IgG polyclonal antibody (Jackson Immuno Research Lab, West Grove, Pa.) surface created through direct amine chemical coupling to a BIACORE™ CM5 sensor chip to form a captured antibody surface. […] Antigen-antibody binding and dissociation were monitored in real time at room temperature. Kinetic analysis was performed to calculate KD and half-life of antigen/antibody complex dissociation (Table 10). For those antibodies where no T_{1/2} value is shown, steady state analysis was used to calculate the KD value. NB: no binding observed under current experimental conditions. ND: not determined.

T12 sequence (peptide, as listed by the source): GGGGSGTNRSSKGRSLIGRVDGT
T7 sequence (P55085 26-397 G138A limits assumed): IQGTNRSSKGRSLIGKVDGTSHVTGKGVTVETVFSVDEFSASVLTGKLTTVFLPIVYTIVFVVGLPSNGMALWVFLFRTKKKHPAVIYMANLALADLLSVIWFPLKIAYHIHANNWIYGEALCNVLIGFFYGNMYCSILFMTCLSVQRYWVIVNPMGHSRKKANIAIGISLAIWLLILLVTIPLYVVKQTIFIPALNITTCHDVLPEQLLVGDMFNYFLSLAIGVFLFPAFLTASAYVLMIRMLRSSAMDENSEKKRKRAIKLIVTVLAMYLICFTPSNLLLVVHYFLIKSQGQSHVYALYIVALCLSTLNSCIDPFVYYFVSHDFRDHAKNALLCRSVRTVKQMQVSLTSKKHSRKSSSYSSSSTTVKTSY

B1: H4H590N (antibody, human IgG4, V domains shown)
VH: EVQLVESGGGLVQPGRSLRLSCAASGFTFDDYAMHWVRQAPGKGLEWVSGITWNSGTMAYADSVKGRFTISRDNAKNSLYLQMNSLRAEDTALYYCAKENWAFDYWGQGTLVTVSS
VL: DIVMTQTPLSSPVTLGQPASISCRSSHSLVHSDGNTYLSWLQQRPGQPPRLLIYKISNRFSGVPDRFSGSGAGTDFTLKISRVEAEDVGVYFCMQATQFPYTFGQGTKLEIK
notes: cloned onto human IgG4; also called H1M590N variable regions
binding result [1]: no binding | binding result [2]: no binding | binding result [3]: no binding | Kd [4]: 3.56 nM | T1/2 [4]: 3 min | binding result [5]: no binding | Bmax (full length mouse PAR-2): 13300 MSD Unit | EC50 (full length mouse PAR-2): 5.76 nM | Bmax (full length human PAR-2): 6550 MSD Unit | EC50 (full length human PAR-2): 9.72 nM | Kd [6]: 2.94 nM | T1/2 [6]: 2 min | Kd [7]: 1.28 nM | T1/2 [7]: 7 min | Kd [8]: 1.52 nM | T1/2 [8]: 3 min | binding result [9]: no binding | Kd [10]: 1.84 nM | T1/2 [10]: 2 min | binding result [11]: no binding | binding result [12]: no binding
